Tests used:
[1] = biological target: IL-8A interleukin receptor (UniProt P25024); assay: cell-based or functional assay
[2] = biological target: active human CCR5 chemokine receptor (human) (UniProt P51681); assay: cell-based or functional assay
Chain of UniProt P51681 (P51681 whole entry): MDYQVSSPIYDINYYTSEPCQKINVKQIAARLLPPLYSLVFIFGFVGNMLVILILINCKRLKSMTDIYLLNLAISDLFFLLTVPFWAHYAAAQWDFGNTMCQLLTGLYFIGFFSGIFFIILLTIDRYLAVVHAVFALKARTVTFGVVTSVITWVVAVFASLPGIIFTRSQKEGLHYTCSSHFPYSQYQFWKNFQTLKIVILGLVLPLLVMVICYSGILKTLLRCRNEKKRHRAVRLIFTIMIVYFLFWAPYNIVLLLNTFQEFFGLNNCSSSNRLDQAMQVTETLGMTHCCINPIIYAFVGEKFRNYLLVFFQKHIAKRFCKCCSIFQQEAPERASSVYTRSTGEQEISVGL

Substance	increase in metabolic activity (microphysiometer) [1] [%]	EC50 of the acidification response (microphysiometer) [2] [nM]	acidification rate at 30 nM, percent of baseline level (% of baseline level) [2]
recombinant human IL-8 (Interleukin 8) (from UniProt P10145 28-99) (ligand)	160		
recombinant human MIP-1α (Macrophage Inflammatory Protein 1 α) (from UniProt P10147 27-92) (ligand)		3	156

Reference: patent publication US20040161739A1
